Results as given in patent publication US20260167721A1 (ABLEXIS, published 2026).

Experiments:
[1] = biological target: T1, recombinant human CD3 epsilon/delta heterodimer (human, UniProt P07766 23-126; P04234 22-105); test: BLI (Octet), mAb 5 ug/mL on FAB2G sensor, hCD3 E/D 200-50 nM
T1 construct: Recombinant heterodimer used as analyte in Octet; also called hCD3 E/D; human CD3E/D

[2] = biological target: T2, recombinant human CD3 epsilon/gamma heterodimer (human, UniProt P07766 23-126; P09693 23-116); test: BLI (Octet), mAb 5 ug/mL on FAB2G sensor, hCD3 E/G 200-50 nM;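 also: antibodies purified from hybridoma supernatants, measured by Octet binding to recombinant human CD3 protein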
T2 construct: Recombinant heterodimer used as analyte in Octet; also called hCD3 E/G
T2 sequence (P07766 23-126, chain 1 of 2): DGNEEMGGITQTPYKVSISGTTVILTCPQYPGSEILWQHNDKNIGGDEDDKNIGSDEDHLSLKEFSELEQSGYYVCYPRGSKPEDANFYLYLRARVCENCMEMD
T2 sequence (P09693 23-116, chain 2 of 2): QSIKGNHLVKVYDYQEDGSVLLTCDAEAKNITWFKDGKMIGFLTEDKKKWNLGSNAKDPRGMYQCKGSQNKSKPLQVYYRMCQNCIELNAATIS

[3] = biological target: T3, human CD3 (on human Pan-T cells or donor PBMC) (human, UniProt P07766 23-207; P04234 22-171; P09693 23-182; P20963 22-164); test: cell-based or functional assay
T3 sequence (P07766 23-207, chain 1 of 4): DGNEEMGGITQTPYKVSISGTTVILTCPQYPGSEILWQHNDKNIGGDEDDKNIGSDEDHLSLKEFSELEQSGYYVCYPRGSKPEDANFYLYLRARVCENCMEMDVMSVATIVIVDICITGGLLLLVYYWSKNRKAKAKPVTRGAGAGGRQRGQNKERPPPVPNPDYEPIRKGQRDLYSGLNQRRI
T3 sequence (P04234 22-171, chain 2 of 4): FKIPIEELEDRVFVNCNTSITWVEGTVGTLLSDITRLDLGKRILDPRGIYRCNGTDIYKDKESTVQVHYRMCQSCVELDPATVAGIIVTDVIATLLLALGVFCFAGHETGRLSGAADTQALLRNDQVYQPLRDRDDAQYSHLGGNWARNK
T3 sequence (P09693 23-182, chain 3 of 4): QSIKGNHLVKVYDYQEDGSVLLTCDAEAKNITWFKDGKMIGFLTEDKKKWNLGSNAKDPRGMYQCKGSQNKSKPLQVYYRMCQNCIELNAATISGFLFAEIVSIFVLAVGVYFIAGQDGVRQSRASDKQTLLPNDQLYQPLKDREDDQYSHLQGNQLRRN
T3 sequence (P20963 22-164, chain 4 of 4): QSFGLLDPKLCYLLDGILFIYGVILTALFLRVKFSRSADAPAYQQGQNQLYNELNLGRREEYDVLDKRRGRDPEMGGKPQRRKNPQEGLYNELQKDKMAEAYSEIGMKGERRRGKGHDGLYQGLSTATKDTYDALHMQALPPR

[4] = biological target: T3, human CD3 (on human Pan-T cells or …); test: cell-based or functional assay; remark: listed apart in the source

T1 sequence (P07766 23-126, stated change not applied, chain 1 of 2): as the sequence (P07766 23-126, chain 1 of 2) above
T1 sequence (P04234 22-105, stated change not applied, chain 2 of 2): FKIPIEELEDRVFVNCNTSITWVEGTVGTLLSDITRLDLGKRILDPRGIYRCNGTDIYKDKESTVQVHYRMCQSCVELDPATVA

Row | Binder | Kd [1] [nM] | Response [1] | koff [1] [s⁻¹] | kon [1] [M⁻¹ s⁻¹] | Kd [2] [nM] | Response [2] | koff [2] [s⁻¹] | kon [2] [M⁻¹ s⁻¹] | Cytokine Release Assay (IFNγ), Donor 0, gMFI max [3] [gMFI] | Cytokine Release Assay (IFNγ), Donor 1, gMFI max [3] [gMFI] | Cytokine Release Assay (IFNγ), Donor 2, EC50 [3] [nM] | Cytokine Release Assay (IFNγ), Donor 2, gMFI max [3] [gMFI] | Cytokine Release Assay (IFNγ), Donor 3, gMFI max [3] [gMFI] | RTCC Assay, Donor 0, EC50 [4] [nM] | RTCC Assay, Donor 0, gMFI max [4] [gMFI] | RTCC Assay, Donor 1, EC50 [4] [nM] | RTCC Assay, Donor 1, gMFI max [4] [gMFI] | RTCC Assay, Donor 2, EC50 [4] [nM] | RTCC Assay, Donor 2, gMFI max [4] [gMFI] | RTCC Assay, Donor 3, EC50 [4] [nM] | also measured
1 | ABL-CD3-65 (antibody, V domains shown, mAb purified from hybridoma; chimeric AlivaMab IgG (human VH, CH1 and upper hinge; mouse middle hinge, CH2, CH3; human light chain)) VH: QVQLQQWGAGLLKPSETLSLTCAVYGGSFSGYYWSWIRQPPGKGLEWIGEINHSGSTNYNPSLKSRVTISVDTSKNQFSLKLSSVTAADTAVYYCAREYYYYGMDVWGQGTTVTVSS VL: not shown | 22.7 | 0.01 | 0.00643 | 283000 | 18.7 | 0.01 | 0.00174 | 93200 | – | – | – | – | – | – | – | – | – | – | – | – | –
2 | CD3 × CD33-BspAb73 (bispecific antibody) chain 1: EVQLVESGGGLVKPGGSLRLSCAASGFTFSSYSMNWVRQAPGKCLEWVSSVNSRGSYIYYADSVKGRFTISRDNAKDSLYLQMNSLRADDTAVYYCARDRRELLLDYWGQGTLVTVSSGGGGSGGGGSGGGGSGGGGSSYELTQPPSVSVSPGQTARITCSGDALPKKYAYWYQQKSGQAPVLVIYEDSKRPSGIPERFSGSSSGTMATLTISGAQVEDEADYYCYSTDSSGNHSWVFGCGTKLTVLDKTHTCPPCPAPEFEGGPSVFLFPPKPKDTLMISRTPEVTCVVVDVSHEDPEVKFNWYVDGVEVHNAKTKPREEQYNSTYRVVSVLTVLHQDWLNGKEYKCKVSNKALPASIEKTISKAKGQPREPQVYTLPPCREEMTKNQVSLWCLVKGFYPSDIAVEWESNGQPENNYKTTPPVLDSDGSFFLYSKLTVDKSRWQQGNVFSCSVMHEALHNHYTQKSLSLSPGK chain 2: EVQLVQSGAEVKKPGSSVKVSCKASGYTITDSNIHWVRQAPGQSLEWIGYIYPYNGGTDYNQKFKNRATLTVDNPTNTAYMELSSLRSEDTAFYYCVNGNPWLAYWGQGTLVTVSSASTKGPSVFPLAPSSKSTSGGTAALGCLVKDYFPEPVTVSWNSGALTSGVHTFPAVLQSSGLYSLSSVVTVPSSSLGTQTYICNVNHKPSNTKVDKRVEPKSCDKTHTCPPCPAPEFEGGPSVFLFPPKPKDTLMISRTPEVTCVVVDVSHEDPEVKFNWYVDGVEVHNAKTKPREEQYNSTYRVVSVLTVLHQDWLNGKEYKCKVSNKALPASIEKTISKAKGQPREPQVCTLPPSREEMTKNQVSLSCAVKGFYPSDIAVEWESNGQPENNYKTTPPVLDSDGSFFLVSKLTVDKSRWQQGNVFSCSVMHEALHNRFTQKSLSLSPGK chain 3: DIQLTQSPSTLSASVGDRVTITCRASESLDNYGIRFLTWFQQKPGKAPKLLMYAASNQGSGVPSRFSGSGSGTEFTLTISSLQPDDFATYYCQQTKEVPWSFGQGTKVEVKRTVAAPSVFIFPPSDEQLKSGTASVVCLLNNFYPREAKVQWKVDNALQSGNSQESVTEQDSKDSTYSLSSTLTLSKADYEKHKVYACEVTHQGLSSPVTKSFNRGEC | – | – | – | – | – | – | – | – | 308000 | 4350 | 8.61 | 26900 | 198000 | 0.086 | 15600 | 0.035 | 79900 | 0.089 | 56100 | 0.159 | Cytokine Release Assay (IFNγ), Donor 3, EC50 [3]: 4.64 nM; RTCC Assay, Donor 3, gMFI max [4]: 74000 gMFI
3 | CD3 × CD33-BspAb72 (bispecific antibody) chain 1: EVQLVESGGGLVQPGGSLRLSCAASGFTFSSYSMNWVRQAPGKCLEWVSYISSSSSTIYYADSVKGRFTISRDNAKNSLYLQMNSLRDEDTAVYYCARDGPVDYGMDVWGQGTTVTVSSGGGGSGGGGSGGGGSGGGGSSYELTQPPSVSVSPGQTARITCSGDALPKQYTYWYQQKPGQAPVLVIYKDSERPSGIPERFSGSSSGTTVTLTISGVQAEDEADYYCQSADSSGTYRVFGCGTKLTVLDKTHTCPPCPAPEFEGGPSVFLFPPKPKDTLMISRTPEVTCVVVDVSHEDPEVKFNWYVDGVEVHNAKTKPREEQYNSTYRVVSVLTVLHQDWLNGKEYKCKVSNKALPASIEKTISKAKGQPREPQVYTLPPCREEMTKNQVSLWCLVKGFYPSDIAVEWESNGQPENNYKTTPPVLDSDGSFFLYSKLTVDKSRWQQGNVFSCSVMHEALHNHYTQKSLSLSPGK chain 2: EVQLVQSGAEVKKPGSSVKVSCKASGYTITDSNIHWVRQAPGQSLEWIGYIYPYNGGTDYNQKFKNRATLTVDNPTNTAYMELSSLRSEDTAFYYCVNGNPWLAYWGQGTLVTVSSASTKGPSVFPLAPSSKSTSGGTAALGCLVKDYFPEPVTVSWNSGALTSGVHTFPAVLQSSGLYSLSSVVTVPSSSLGTQTYICNVNHKPSNTKVDKRVEPKSCDKTHTCPPCPAPEFEGGPSVFLFPPKPKDTLMISRTPEVTCVVVDVSHEDPEVKFNWYVDGVEVHNAKTKPREEQYNSTYRVVSVLTVLHQDWLNGKEYKCKVSNKALPASIEKTISKAKGQPREPQVCTLPPSREEMTKNQVSLSCAVKGFYPSDIAVEWESNGQPENNYKTTPPVLDSDGSFFLVSKLTVDKSRWQQGNVFSCSVMHEALHNRFTQKSLSLSPGK chain 3: DIQLTQSPSTLSASVGDRVTITCRASESLDNYGIRFLTWFQQKPGKAPKLLMYAASNQGSGVPSRFSGSGSGTEFTLTISSLQPDDFATYYCQQTKEVPWSFGQGTKVEVKRTVAAPSVFIFPPSDEQLKSGTASVVCLLNNFYPREAKVQWKVDNALQSGNSQESVTEQDSKDSTYSLSSTLTLSKADYEKHKVYACEVTHQGLSSPVTKSFNRGEC | – | – | – | – | – | – | – | – | 465000 | 4820 | 49.1 | 12200 | 82800 | 5.36 | 21000 | 0.819 | 78100 | 2.43 | 54100 | 4.9 | RTCC Assay, Donor 3, gMFI max [4]: 66200 gMFI
4 | ABL-CD3-64 (antibody, V domains shown, mAb purified from hybridoma; chimeric AlivaMab IgG (human VH, CH1 and upper hinge; mouse middle hinge, CH2, CH3; human light chain)) VH: EVQVAESGGGLVKPGGSLRLSCAASGFTFSRYSMNWVRQAPGKGLEWVSSISSSGSYTYYADSVKGRFTISRDNAKNSLYLQMNSLRAEDTAVYYCVRERGKGAGMDVWGQGTTVTVSS VL: NFMLTQPHSVSESPGKTVTISCTRSSGSIASNYVQWYQQRPGSSPTTVIYEDNQRPSGVPDRFSGSIDSSSNSASLTISGLKTEDEADYYCQSYDSSNRVFGGGTKLTVL | 31.6 | 0.68 | 0.0054 | 171000 | 71.9 | 0.46 | 0.013 | 180000 | – | – | – | – | – | – | – | – | – | – | – | – | –
5 | ABL-CD3-66 (antibody, V domains shown, mAb purified from hybridoma; chimeric AlivaMab IgG (human VH, CH1 and upper hinge; mouse middle hinge, CH2, CH3; human light chain)) VH: QVQLQESGPGLVKPSETLSLTCTVSGGSISSYYWSWIRQPAGKGLEWIGRIYASGSTYYNPSLKSRVTMSVDTSKNQFSLKLSSVTAADTAVYYCAREKRSRLYFDYWGQGTLVTVSS VL: NFMLTQPHSVSESPGKTVTISCTRSSGSIASNYVQWYQQRPGSSPTTVIYEDNQRPSGVPDRFSGSIDSSSNSASLTISGLKTEDEGDYYCQSYDRSNRVFGGGTKLTVL | 78.2 | 0.41 | 0.0266 | 341000 | 92.8 | 0.09 | 0.0856 | 923000 | – | – | – | – | – | – | – | – | – | – | – | – | –
6 | ABL-CD3-87 (antibody, V domains shown, mAb purified from hybridoma; chimeric AlivaMab IgG (human VH, CH1 and upper hinge; mouse middle hinge, CH2, CH3; human light chain)) VH: EVQLVESGGGLVKFGGSLRLSCAASGFTFSRYSMNWVRQAPGKGLEWVSSISSSSSYKYYADSVKGRFTISRDNAKNSLYLQMNSLRAEDTAVYYCAREGGNSHGMDVWGQGTTVTVSS VL: NFMLTQPHSVSESPGKTVTISCTRSSGSIASNYVQWYQQRPGSSPTTVIYEDNQRPSGVPDRFSGSIDSSSNSASLTISGLKTEDEADYYCQSYDSSNRVFGGGTKLTVL | 69 | 0.0358 | 0.0166 | 240000 | 131 | 0.36 | 0.0279 | 214000 | – | – | – | – | – | – | – | – | – | – | – | – | –
